Drawing on FireProtDB (doi:10.1016/j.jmb.2004.06.079), this text covers Tm for one protein.

As usually defined, the Tm is the temperature at the midpoint of the melting transition.

For the series the following is noted: Chloroflexus aurantiacus (strain ATCC 29366 / DSM 635 / J-10-fl), Thermal, CD, whole UniProt chain shown.

B1: Malate dehydrogenase wild type, P80040 (protein)
chain: MRKKISIIGAGFVGSTTAHWLAAKELGDIVLLDFVEGVPQGKALDLYEASPIEGFDVRVTGTNNYADTANSDVIVVTSGAPRKPGMSREDLIKVNADITRACISQAAPLSPNAVIIMVNNPLDAMTYLAAEVSGFPKERVIGQAGVLDAARYRTFIAMEAGVSVEDVQAMLMGGHGDEMVPLPRFSTISGIPVSEFIAPDRLAQIVERTRKGGGEIVNLLKTGSAYYAPAAATAQMVEAVLKDKKRVMPVAAYLTGQYGLNDIYFGVPVILGAGGVEKILELPLNEEEMALLNASAKAVRATLDTLKSL
For B1, the Tm runs as follows: (pH 4.4, sodium acetate 10 mM) 80.4 °C; (pH 6, potassium phosphate 10 mM) 79.4 °C; (pH 7.5, potassium phosphate 10 mM) 67.8 °C.
